The record followed here is patent US20030170849.

Data set [1] deals with T1, C4α peptide (SEQ ID NO:23), modeled on tyrosine sulfation sites in the α chain of the fourth component of complement.
T1 chain: EANEDYEDYEYDELPAC

Data set [2] deals with T2, HCII peptide (SEQ ID NO:24), modeled on the tyrosine sulfation site in heparin cofactor II.
T2 chain: EGEEDDDYLDLEKIFC

B1: Human TPST-1-HPC4 fusion protein (protein)
chain: MEDQVDPRLIDGKDPVGKLKQNLLLACLVISSVTVFYLGQHAMECHHRIEERSQPVKLESTRTTVRTGLDLKANKTFAYHKDMPLIFIGGVPRSGTTLMRAMLDAHPDIRCGEETRVIPRILALKQMWSRSSKEKIRLDEAGVTDEVLDSAMQAFLLEIIVKHGEPAPYLCNKDPFALKSLTYLSRLFPNAKFLLMVRDGRASVHSMISRKVTIAGFDLNSYRDCLTKWNRAIETMYNQCMEVGYKKCMLVHYEQLVLHPERWMRTLLKFLQIPWNHSVLHHEEMIGKAGGVSLSKVERSTDQVIKPVNVGALSKWVGKIPPDVLQDMAVIAPMLAKLGYDPYANPPNYGKPDPKIIENTRRVYKGEFQLPDFLKEKPQTEQVE
In the case of B1, the figures for the “specific activity of TPST-1 extracts relative to TPST-2 extracts assayed in parallel” value in data set [1] and in data set [2] were 9-fold higher using the C4α peptide and 21-fold higher using the HCII peptide as substrate, respectively.
